According to patent US9463217B1, “Methods and pharmaceutical compositions for treatment of retinal occlusion” (Institut National de la Sante et de la Recherche Medicale, priority 2012, dated 2016):

How the values were obtained:
RBC adhesion in SCD = settings: treatment by hydroxyurea, ref. [32]; cited from earlier work
[1] = system: adhesion of red blood cells (RBCs) from patients with central retinal vein occlusion to human microvascular endothelial cells (HMEC); test: RBC adhesion to HMEC under flow conditions (microslides, video-microscopy), inhibition by antibodies, peptide or annexin V; format: cell-based
Method: (§1) Blood samples were tested after storage at −196° C. as previously described. For the first 10 patients, RBC adhesion (on three occasions, n=30) was measured just after blood sampling and after storage. As the results were similar before and after storage (the interassay coefficient of variation was 13%±2%) all remaining patients were tested after storage.
Adhesion of RBCs to HMEC under flow conditions was determined according to a previously published technique. Briefly, HMEC were cultured in gelatin (2%) coated glass capillaries (microslides; Camlab Ltd, Cambridge, UK) for 24 h. Microslides containing confluent HMEC were mounted on the stage of a video-microscope. The RBC suspension (hematocrit 0.5%) was perfused through the microslide at a flow rate equivalent to a wall shear stress of 0.03 Pa for […], followed by washout of non-adherent cells for 10 min. The wall shear stress was then increased stepwise (from 0.03 to 0.3 Pa) every 5 min. At each step, adherent RBCs were video-recorded in 10 consecutive fields (one field measures 0.1 mm^2), then were counted using a computerized image analysis system (Optimas Media Cybernetics, Bethesda, Md., USA; R & D Vision, Paris, France) and expressed as number of RBCs per mm^2. Inhibition of RBC adhesion was measured in the presence of the antibodies used in static conditions or after RBC incubation with annexin V.

[2] = system: adhesion of red blood cells (RBCs) from patients with central retinal vein occlusion to human microvascular endothelial cells (HMEC-1); test: RBC adhesion to HMEC under static conditions (radiometric 51Cr technique), inhibition by antibodies, peptide or annexin V; format: cell-based
Method: as §1
RBC adhesion was measured under static conditions using a radiometric technique as previously described. Human microvascular endothelial cells (HMEC-1 Biological Branch Products; CDC, Atlanta, Ga., USA) were cultured in MCDB-131 (Invitrogen, Grand Island, N.Y., USA) supplemented with 15% fetal calf serum (D. Dutscher, Brumath, France), endothelial growth factor (10 ng mL^−1) and hydrocortisone (1 μg mL^−1)(Invitrogen). […] Radioactivity in the lysate was measured in a gamma counter, and adhesion was then calculated as RBCs per square millimeter. […] Inhibition of RBC adhesion was assessed using HMEC preincubated with specific antibodies directed against PS receptor (polyclonal anti-PS receptor antibody, Sigma, St Louis, Mo., USA; polyclonal anti-human stabilin-2 antibody, R&D systems, Minneapolis, Minn., USA) or against human CD36 (monoclonal anti-CD36/SR-B3; R&D systems) or antihuman Brain-specific angiogenesis inhibitor-1 (BAI-1; Santa Cruz Biotechnology, Santa Cruz, Calif., USA). […]

| Molecule | effect on RBC adhesion (in words) (RBC adhesion in SCD) | inhibition of CRVO RBC adhesion to HMEC ([1]; according to the shear stress) | inhibition of CRVO RBC adhesion to HMEC ([1]; shear stress 0.1 Pa) | inhibition of CRVO RBC adhesion to HMEC ([1]; shear stress 0.3 Pa) | inhibition of CRVO RBC adhesion to HMEC [2] [%] |
| --- | --- | --- | --- | --- | --- |
| NC(=O)NO [hydroxyurea] | reduced RBC adhesion | – | – | – | – |
| Annexin V: recombinant, purified annexin V (BD Biosciences); binds to PS (protein, UniProt P08758 2-320, looked up) Annexin A5: AQVLRGTVTDFPGFDERADAETLRKAMKGLGTDEESILTLLTSRSNAQRQEISAAFKTLFGRDLLDDLKSELTGKFEKLIVALMKPSRLYDAYELKHALKGAGTNEKVLTEIIASRTPEELRAIKQVYEEEYGSSLEDDVVGDTSGYYQRMLVVLLQANRDPDAGIDEAQVEQDAQALFQAGELKWGTDEEKFITIFGTRSVSHLRKVFDKYMTISGFQIEETIDRETSGNLEQLLLAVVKSIRSIPAYLAETLYYAMKGAGTDDHTLIRVMVSRSEIDLFNIRKEFRKNFATSLYSMIKGDTSGDYKKALLLLCGEDD | – | 68-74% | 75%±6% | 74%±8% | 35 |
